Assay results taken from the supplement of paper PMC10065799, “High-throughput profiling of sequence recognition by tyrosine kinases and SH2 domains using bacterial peptide display” (eLife, 2023).

What was measured:
[1] = molecular target: c-Src SH2; assay: SH2 binding enrichment of the phosphorylated peptide, bacterial display (enrichment ratio); higher = better substrate or ligand; peptides without Tyr show the background
[2] = molecular target: SHP2-C SH2; assay: as above
[3] = molecular target: Grb2 SH2 (UniProt P62993); assay: as above
[4] = molecular target: Hck (UniProt P08631); assay: phosphorylation enrichment, bacterial display (enrichment ratio); higher = better substrate or ligand; peptides without Tyr show the background
[5] = molecular target: Fyn (UniProt P06241); assay: as above
[6] = molecular target: FGFR1 (UniProt P11362); assay: as above
[7] = molecular target: MERTK (UniProt Q12866); assay: as above
[8] = molecular target: Fes (UniProt P07332); assay: as above
[9] = molecular target: FGFR3 (UniProt P22607); assay: as above
[10] = system: c-Abl (mouse); assay: as above
[11] = system: Fer (mouse); assay: as above
[12] = system: AncSZ; assay: as above
[13] = molecular target: EPHB1 (UniProt P54762); assay: as above
[14] = system: c-Src; assay: as above
[15] = molecular target: Jak2 (UniProt O60674); assay: as above
[16] = molecular target: EPHB2 (UniProt P29323); assay: as above
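Wherever SH2 binding enrichment of the phosphorylated peptide, bacterial display is given: peptide library displayed on the E. coli surface as eCPX fusions, selected cells deep-sequenced, score is each peptide's frequency after selection divided by its frequency in the input.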
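Wherever phosphorylation enrichment, bacterial display is given: 11-residue human phosphosite peptides and single-mutation variants displayed on the E. coli surface, counted by deep sequencing, each peptide's frequency after selection divided by its frequency in the unselected input library; frequency after pTyr selection over input frequency; kinase dosed for 20-30% of maximal phosphorylation in three min.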

FGFR3, sequence (P22607 whole entry, looked up): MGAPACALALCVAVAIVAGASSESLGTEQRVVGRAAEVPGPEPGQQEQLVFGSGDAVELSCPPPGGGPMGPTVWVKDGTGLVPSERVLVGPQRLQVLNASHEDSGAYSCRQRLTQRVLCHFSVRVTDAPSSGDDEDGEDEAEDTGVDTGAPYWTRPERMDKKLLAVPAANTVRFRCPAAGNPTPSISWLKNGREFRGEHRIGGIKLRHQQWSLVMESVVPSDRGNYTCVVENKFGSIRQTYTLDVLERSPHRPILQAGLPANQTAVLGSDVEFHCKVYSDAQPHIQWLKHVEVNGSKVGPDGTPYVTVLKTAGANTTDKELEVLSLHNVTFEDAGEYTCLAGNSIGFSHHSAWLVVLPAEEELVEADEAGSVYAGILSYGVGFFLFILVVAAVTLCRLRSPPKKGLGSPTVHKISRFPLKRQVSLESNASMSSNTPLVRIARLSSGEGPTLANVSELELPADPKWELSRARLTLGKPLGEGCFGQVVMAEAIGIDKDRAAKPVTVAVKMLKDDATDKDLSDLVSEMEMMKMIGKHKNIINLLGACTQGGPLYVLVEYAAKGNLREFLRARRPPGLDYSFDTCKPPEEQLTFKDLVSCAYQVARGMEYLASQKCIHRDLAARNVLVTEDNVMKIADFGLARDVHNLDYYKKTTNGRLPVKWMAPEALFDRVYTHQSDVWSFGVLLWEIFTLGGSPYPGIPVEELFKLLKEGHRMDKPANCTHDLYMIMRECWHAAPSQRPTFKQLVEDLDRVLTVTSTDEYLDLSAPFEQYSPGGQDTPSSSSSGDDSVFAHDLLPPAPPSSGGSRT
MERTK, sequence (Q12866 whole entry, looked up): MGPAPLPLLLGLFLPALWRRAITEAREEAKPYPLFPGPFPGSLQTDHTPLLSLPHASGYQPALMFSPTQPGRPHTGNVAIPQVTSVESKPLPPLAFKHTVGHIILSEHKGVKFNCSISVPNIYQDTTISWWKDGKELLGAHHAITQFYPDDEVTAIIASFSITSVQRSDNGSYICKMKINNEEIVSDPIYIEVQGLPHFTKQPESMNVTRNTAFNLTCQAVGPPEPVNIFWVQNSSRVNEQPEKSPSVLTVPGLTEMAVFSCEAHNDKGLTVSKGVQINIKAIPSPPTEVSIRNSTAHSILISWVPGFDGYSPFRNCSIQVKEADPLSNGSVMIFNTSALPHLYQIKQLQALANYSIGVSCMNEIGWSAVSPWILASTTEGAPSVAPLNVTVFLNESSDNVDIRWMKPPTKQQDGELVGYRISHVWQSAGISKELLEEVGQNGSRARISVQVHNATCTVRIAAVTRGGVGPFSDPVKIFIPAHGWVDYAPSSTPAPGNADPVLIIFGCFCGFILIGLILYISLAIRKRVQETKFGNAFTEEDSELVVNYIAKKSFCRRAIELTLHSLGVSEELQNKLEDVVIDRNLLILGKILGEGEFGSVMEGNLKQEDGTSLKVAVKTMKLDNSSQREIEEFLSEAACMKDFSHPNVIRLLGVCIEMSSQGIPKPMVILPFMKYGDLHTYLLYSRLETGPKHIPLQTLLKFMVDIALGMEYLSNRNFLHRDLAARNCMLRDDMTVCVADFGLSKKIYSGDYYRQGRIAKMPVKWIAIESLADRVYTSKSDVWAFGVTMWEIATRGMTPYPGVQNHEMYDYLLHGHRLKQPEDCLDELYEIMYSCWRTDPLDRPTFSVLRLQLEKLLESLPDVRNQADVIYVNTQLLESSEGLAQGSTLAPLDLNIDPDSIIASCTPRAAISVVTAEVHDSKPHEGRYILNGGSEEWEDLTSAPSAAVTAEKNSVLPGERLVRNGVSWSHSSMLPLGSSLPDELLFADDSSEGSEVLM
Fes, sequence (P07332 whole entry, looked up): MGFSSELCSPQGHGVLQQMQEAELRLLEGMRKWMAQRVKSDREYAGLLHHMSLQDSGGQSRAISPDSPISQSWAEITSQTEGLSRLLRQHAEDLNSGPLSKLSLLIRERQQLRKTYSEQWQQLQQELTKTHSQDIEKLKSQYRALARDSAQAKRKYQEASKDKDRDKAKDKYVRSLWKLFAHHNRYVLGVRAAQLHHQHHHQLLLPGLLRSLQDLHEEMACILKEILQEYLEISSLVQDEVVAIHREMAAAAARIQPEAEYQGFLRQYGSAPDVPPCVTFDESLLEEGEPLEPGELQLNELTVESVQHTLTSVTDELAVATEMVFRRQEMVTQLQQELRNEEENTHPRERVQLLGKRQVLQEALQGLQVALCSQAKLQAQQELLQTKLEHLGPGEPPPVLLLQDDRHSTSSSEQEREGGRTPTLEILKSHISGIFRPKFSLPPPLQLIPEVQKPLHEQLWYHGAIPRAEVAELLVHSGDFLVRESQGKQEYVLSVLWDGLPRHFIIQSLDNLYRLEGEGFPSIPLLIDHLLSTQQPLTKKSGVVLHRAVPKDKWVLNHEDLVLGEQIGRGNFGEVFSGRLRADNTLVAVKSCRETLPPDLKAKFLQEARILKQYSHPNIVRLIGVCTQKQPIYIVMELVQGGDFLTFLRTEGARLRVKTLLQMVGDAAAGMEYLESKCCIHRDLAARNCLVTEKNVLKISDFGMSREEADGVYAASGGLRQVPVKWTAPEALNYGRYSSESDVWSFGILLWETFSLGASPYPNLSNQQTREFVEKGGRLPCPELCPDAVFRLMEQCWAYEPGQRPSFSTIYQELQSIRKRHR
Grb2 SH2, sequence (P62993 whole entry, looked up): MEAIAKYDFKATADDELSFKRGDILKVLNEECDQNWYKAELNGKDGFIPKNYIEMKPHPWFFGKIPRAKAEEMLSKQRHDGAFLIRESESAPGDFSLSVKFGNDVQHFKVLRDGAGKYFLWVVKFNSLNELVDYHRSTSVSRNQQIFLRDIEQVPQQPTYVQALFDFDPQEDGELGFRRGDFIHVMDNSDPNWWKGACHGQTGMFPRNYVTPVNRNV
Hck, sequence (P08631 whole entry, looked up): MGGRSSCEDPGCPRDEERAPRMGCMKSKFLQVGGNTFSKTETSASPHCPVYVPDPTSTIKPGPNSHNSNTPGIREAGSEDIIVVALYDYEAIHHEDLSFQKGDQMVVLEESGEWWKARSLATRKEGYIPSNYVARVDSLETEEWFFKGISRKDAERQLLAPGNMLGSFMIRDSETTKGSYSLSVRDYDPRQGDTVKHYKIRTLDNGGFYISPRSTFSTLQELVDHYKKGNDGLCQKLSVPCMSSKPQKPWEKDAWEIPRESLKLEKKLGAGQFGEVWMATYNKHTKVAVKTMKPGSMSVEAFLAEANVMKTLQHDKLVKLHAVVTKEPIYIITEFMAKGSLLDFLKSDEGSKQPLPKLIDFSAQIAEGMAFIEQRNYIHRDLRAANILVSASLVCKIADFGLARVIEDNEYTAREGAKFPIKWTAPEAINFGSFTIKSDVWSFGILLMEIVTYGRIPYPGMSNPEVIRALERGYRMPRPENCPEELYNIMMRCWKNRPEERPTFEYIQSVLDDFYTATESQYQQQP
Jak2, sequence (O60674 whole entry, looked up): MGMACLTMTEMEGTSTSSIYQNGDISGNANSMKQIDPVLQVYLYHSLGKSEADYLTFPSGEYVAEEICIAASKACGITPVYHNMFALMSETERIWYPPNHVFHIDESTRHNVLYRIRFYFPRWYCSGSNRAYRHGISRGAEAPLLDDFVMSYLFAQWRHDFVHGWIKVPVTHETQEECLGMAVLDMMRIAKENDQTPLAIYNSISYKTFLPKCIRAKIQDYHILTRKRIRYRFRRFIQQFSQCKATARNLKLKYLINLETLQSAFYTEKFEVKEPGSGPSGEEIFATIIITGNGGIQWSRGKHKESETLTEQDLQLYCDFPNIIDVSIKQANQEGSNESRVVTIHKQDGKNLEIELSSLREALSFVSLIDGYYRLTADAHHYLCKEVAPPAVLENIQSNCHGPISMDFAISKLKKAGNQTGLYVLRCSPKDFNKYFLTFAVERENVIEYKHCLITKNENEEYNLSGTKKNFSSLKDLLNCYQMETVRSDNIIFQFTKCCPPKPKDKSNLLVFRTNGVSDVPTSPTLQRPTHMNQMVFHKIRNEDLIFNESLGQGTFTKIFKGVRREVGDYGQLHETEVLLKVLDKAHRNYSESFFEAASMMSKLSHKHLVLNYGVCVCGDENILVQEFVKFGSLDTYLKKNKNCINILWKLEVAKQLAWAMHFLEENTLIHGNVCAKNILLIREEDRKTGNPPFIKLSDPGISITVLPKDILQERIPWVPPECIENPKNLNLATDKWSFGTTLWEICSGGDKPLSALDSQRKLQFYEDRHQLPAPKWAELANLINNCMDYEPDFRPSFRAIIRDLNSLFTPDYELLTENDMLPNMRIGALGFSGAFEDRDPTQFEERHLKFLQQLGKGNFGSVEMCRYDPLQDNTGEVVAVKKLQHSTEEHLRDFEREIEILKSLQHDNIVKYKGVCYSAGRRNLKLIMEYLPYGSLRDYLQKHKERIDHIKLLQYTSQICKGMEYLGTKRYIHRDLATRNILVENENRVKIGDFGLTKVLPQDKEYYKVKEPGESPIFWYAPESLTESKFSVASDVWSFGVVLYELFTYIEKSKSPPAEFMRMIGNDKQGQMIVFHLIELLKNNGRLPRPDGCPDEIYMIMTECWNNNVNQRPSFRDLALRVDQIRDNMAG
Fyn, sequence (P06241 whole entry, looked up): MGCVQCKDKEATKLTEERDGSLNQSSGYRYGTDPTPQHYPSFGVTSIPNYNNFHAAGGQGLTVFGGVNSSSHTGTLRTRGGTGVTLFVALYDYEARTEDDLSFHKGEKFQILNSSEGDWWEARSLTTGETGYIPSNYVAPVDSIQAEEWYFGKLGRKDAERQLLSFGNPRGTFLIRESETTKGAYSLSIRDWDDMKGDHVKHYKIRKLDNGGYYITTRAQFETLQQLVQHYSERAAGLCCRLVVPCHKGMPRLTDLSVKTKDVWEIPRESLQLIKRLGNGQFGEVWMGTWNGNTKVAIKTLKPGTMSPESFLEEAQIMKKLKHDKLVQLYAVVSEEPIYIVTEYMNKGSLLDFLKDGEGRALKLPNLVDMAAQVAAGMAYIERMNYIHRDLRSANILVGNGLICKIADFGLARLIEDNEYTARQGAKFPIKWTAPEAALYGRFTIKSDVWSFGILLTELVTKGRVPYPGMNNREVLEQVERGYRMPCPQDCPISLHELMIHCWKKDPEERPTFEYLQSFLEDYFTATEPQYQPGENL

Sequence | SH2 binding enrichment [1] | SH2 binding enrichment [2] | SH2 binding enrichment [3] | phosphorylation enrichment [4] | phosphorylation enrichment [5] | phosphorylation enrichment [6] | phosphorylation enrichment [7] | phosphorylation enrichment [8] | phosphorylation enrichment [9] | phosphorylation enrichment [10] | phosphorylation enrichment [11] | phosphorylation enrichment [12] | phosphorylation enrichment [13] | phosphorylation enrichment [14] | phosphorylation enrichment [15] | phosphorylation enrichment [16]
RRSQSYNPTSG [PLEKHA2_Y185_I186N] | 0.323 | 0.461 | 0.692 | 0.821 | 0.897 | 0.649 | 0.491 | 0.972 | 0.523 | 0.765 | 0.458 | 0.612 | 0.435 | 0.811 | 0.809 | 0.512
RSAGKYDVYLI [MECP2_Y120] | 0.579 | 0.539 | 0.651 | 0.878 | 1.31 | 0.433 | 0.412 | 1.06 | 0.717 | 0.587 | 0.555 | 0.885 | 0.525 | 1.8 | 0.987 | 0.77
RTLTHYKSAVK [ASNS_Y555] | 0.545 | 0.83 | 0.934 | 0.5 | 0.35 | 0.35 | 0.702 | 0.813 | 0.545 | 0.563 | 0.312 | 0.532 | 0.678 | 0.588 | 0.801 | 0.411
RTTIHYNFMCN [TP53_Y234_C229R_YF] | 0.624 | 0.657 | 0.884 | 0.54 | 0.527 | 0.648 | 0.609 | 1.46 | 1.11 | 2.01 | 0.668 | 1.33 | 0.908 | 0.514 | 1.29 | 0.808
RVILRYVNPGT [LAMA3_Y791] | 0.717 | 0.632 | 1.44 | 0.561 | 0.591 | 0.538 | 0.385 | 1.13 | 0.883 | 0.663 | 0.606 | 1.06 | 0.838 | 0.448 | 0.947 | 0.666
RYFTTYDTNGR [CLCA1_Y665] | 0.556 | 1.24 | 0.777 | 0.943 | 0.693 | 0.709 | 0.557 | 0.746 | 0.598 | 0.296 | 0.471 | 0.657 | 0.672 | 0.774 | 0.742 | 0.698
RYVTRHIYNRE [HLA-DQB1_Y62_Y62H] | 0.414 | 0.64 | 0.718 | 0.662 | 0.73 | 0.291 | 0.857 | 0.777 | 0.525 | 0.751 | 0.469 | 0.966 | 0.525 | 0.874 | 0.589 | 0.795
SAPDSYIGIGN [SLC38A4_Y27] | 0.584 | 0.764 | 0.769 | 0.495 | 0.511 | 0.502 | 0.59 | 0.742 | 0.556 | 0.594 | 0.404 | 0.669 | 0.484 | 0.437 | 0.739 | 0.533
SAPDSYIRIGN [SLC38A4_Y27_G29R] | 0.814 | 0.757 | 0.79 | 0.47 | 0.357 | 0.424 | 0.488 | 0.796 | 0.436 | 0.483 | 0.35 | 0.594 | 0.359 | 0.352 | 0.52 | 0.396
SAPPSHEETVA [LITAF_Y23_Y23H] | 0.4 | 0.549 | 0.62 | 0.342 | 0.481 | 0.374 | 0.338 | 0.597 | 0.84 | 0.489 | 0.524 | 0.453 | 0.435 | 0.404 | 0.817 | 0.393
SDFSRYARTSI [TERT_Y949_S948R_YF] | 0.476 | 0.901 | 1.05 | 0.484 | 0.408 | 0.48 | 0.48 | 0.6 | 0.487 | 0.502 | 0.358 | 0.537 | 0.463 | 0.442 | 0.502 | 0.466
SDQRRYSLIDP [CLIP2_Y972_R977P] | 15.9 | 3.82 | 0.889 | 0.466 | 0.574 | 0.533 | 1.3 | 0.719 | 0.64 | 0.488 | 0.545 | 0.683 | 0.56 | 0.383 | 0.587 | 0.567
SDQRRYSLIDR [CLIP2_Y972] | 3.35 | 0.861 | 0.833 | 0.366 | 0.394 | 0.356 | 0.419 | 0.558 | 0.421 | 0.467 | 0.412 | 0.508 | 0.327 | 0.358 | 0.479 | 0.444
SDYSSYARTSI [TERT_Y949] | 0.535 | 0.637 | 0.725 | 0.862 | 0.845 | 0.553 | 0.52 | 0.558 | 0.7 | 0.639 | 0.542 | 0.792 | 1.63 | 0.897 | 0.725 | 2.84
SEDANYMRVSC [TTC3_Y1288_K1289M] | 0.534 | 0.746 | 0.819 | 0.563 | 0.529 | 0.735 | 0.455 | 0.958 | 0.742 | 0.7 | 0.645 | 1.03 | 2.98 | 0.468 | 0.743 | 1.42
SEDSEYYRAFE [CASQ2_Y178_K180R] | 0.47 | 0.67 | 0.901 | 0.685 | 0.823 | 0.869 | 0.523 | 1.29 | 1.24 | 0.89 | 0.515 | 2.7 | 0.67 | 0.824 | 1.29 | 0.696
SEELHYYVQNH [UQCRC2_Y207_F208Y] | 0.723 | 0.451 | 0.799 | 0.732 | 0.633 | 3.68 | 2.86 | 1.62 | 4.09 | 2.09 | 0.954 | 2.04 | 0.89 | 1.48 | 1.68 | 0.788
SEKIVYGHLDD [ACO2_Y71] | 0.56 | 0.926 | 0.865 | 0.639 | 0.817 | 0.432 | 0.359 | 1 | 0.573 | 0.793 | 0.505 | 0.829 | 0.499 | 0.847 | 0.815 | 0.556
SENAFYLSPHI [COL6A3_Y2827_D2831H] | 0.461 | 0.606 | 0.776 | 0.863 | 0.487 | 0.653 | 0.696 | 0.887 | 0.693 | 1.96 | 0.775 | 1.26 | 0.576 | 0.491 | 3.25 | 0.573
SEPDLYFDPRG [PKP1_Y160_C161Y_YF] | 0.492 | 0.741 | 0.9 | 9.33 | 4.59 | 9.25 | 4.69 | 1.14 | 6.9 | 2.71 | 0.841 | 2.86 | 13.1 | 4.46 | 3.41 | 11.4
SFGESYDNSKS [MAN1B1_Y60_N59S] | 0.437 | 0.568 | 0.928 | 0.482 | 0.466 | 0.493 | 0.502 | 0.953 | 0.595 | 0.747 | 0.433 | 0.813 | 0.474 | 0.508 | 0.939 | 0.508
SGETEYNPTEA [NBEAL2_Y2748] | 0.488 | 0.628 | 0.803 | 0.707 | 0.69 | 0.77 | 0.562 | 1.55 | 0.82 | 1.16 | 0.604 | 1.47 | 0.729 | 0.59 | 1.26 | 0.671
SGFESYGSSSY [RPA2_Y9] | 0.541 | 0.708 | 0.672 | 0.474 | 0.44 | 0.368 | 0.382 | 0.765 | 0.462 | 0.718 | 0.403 | 0.582 | 0.341 | 0.481 | 0.821 | 0.478
SGVSYYINLCQ [IGF2R_Y2025_N2020S] | 0.531 | 0.642 | 0.743 | 0.51 | 0.38 | 0.543 | 0.316 | 1.5 | 0.824 | 0.803 | 1.03 | 1.01 | 0.682 | 0.33 | 1.32 | 0.635
SHSMRYFDTAV [HLA-C_Y31] | 0.51 | 0.467 | 0.716 | 0.424 | 0.416 | 0.471 | 0.497 | 0.586 | 0.521 | 0.436 | 0.384 | 0.57 | 0.42 | 0.367 | 0.492 | 0.329
SILAVYSKDIY [PANK2_Y400_N404I] | 0.726 | 0.903 | 0.897 | 2.48 | 2.43 | 0.518 | 2.91 | 0.924 | 0.713 | 0.537 | 0.45 | 1.07 | 0.745 | 2.84 | 1.04 | 0.788
SILTVYSKDNF [PANK2_Y400_A398T_YF] | 0.466 | 0.73 | 0.838 | 0.548 | 0.516 | 0.572 | 0.454 | 0.894 | 0.627 | 0.456 | 0.481 | 0.814 | 0.549 | 0.6 | 0.907 | 0.514
SKDSAYVTWEP | 0.654 | 0.726 | 0.975 | 1.32 | 1.5 | 1.48 | 1.14 | 0.971 | 1.06 | 0.702 | 1.65 | 0.988 | 0.518 | 1.59 | 0.914 | 0.576
SKHRLYSDLQT [PTCHD1_Y84] | 1.57 | 1.12 | 1.3 | 0.422 | 0.376 | 0.339 | 0.645 | 0.715 | 0.411 | 0.476 | 0.654 | 0.5 | 0.443 | 0.371 | 0.406 | 0.484
